± gives the uncertainty stated by the source.
What was measured:
[1] = amyloid nucleation score (Sup35N fusion, yeast selection) (log enrichment); library NNK3; higher = more nucleation; inactive = no reads after selection
In short: (§1)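 Libraries of peptides of 20 random codons fused to Sup35N were expressed in psi-negative yeast and induced 24 hours with 100 μM copper sulfate. Selection was 7 days at 30°C on medium lacking adenine and uracil, and plasmid inserts were Illumina-sequenced before and after selection. Nucleation score is the DiMSum log enrichment of output over input reads, centred on the mode score of non-aggregating sequences, and sequences with under 100 input reads were left out.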

[2] = amyloid nucleation score (Sup35N fusion, yeast selection) (log enrichment); library NNK1; higher = more nucleation; inactive = no reads after selection
In short: as §1

Substance	amyloid nucleation score [1]	amyloid nucleation score [2]
LMYMS	inactive	-0.11 ± 0.67
HEKVV	–	0.292 ± 0.32
QSLDE	–	-0.44 ± 0.28
SIAYPRNIELRWDEIGGDML	–	0.178 ± 0.54
LSHRGVLVAMDRTMYPM	–	-0.621 ± 0.42
LFVGRGIAFVSFGPLALS	–	3.83 ± 0.08
NKMGFFNTISGKRS	–	-0.556 ± 0.59
YRYSSIF	–	-0.954 ± 1.4
MLLLSVSLSLKID	–	4.35 ± 0.095
LCNVEDRPYKKFPTDVASK	–	-0.031 ± 0.31
LNNTVEDPA	–	0.892 ± 0.92
HHVAVSLDANLNFFTLWLER	–	3.81 ± 0.12
CRPVGSTVVSVDNGTS	–	-0.188 ± 0.37
VIGKMDEVGSIVEFDSGIRV	–	0.658 ± 0.47
CSKIVYPCSTFTSLFYLFLP	–	-0.614 ± 0.8
LFRIIWGCS	–	inactive
KCHLFKHLL	–	1.66 ± 0.6
RVDGVKIRGYNWHLLMITCI	–	0.083 ± 0.6
CLSELGFAVPTSWTICILCT	–	0.656 ± 0.59
QKKSLVRGKGES	–	-0.145 ± 0.48
FCQGYRLGS	–	0.19 ± 0.48
SLSTGIAFINLAACVYSKLT	–	2.85 ± 0.18
THYNAGSCKMLNQAPFHRIS	–	-0.352 ± 0.33

Substance	amyloid nucleation score [1]	amyloid nucleation score [2]
NDWVY	–	1.12 ± 0.53
SPRYQSVWEFVSFQDCTSRW	–	0.118 ± 1.2
FALLFRLFRW	–	0.539 ± 0.28
NREIPQWIGFVY	–	1.12 ± 0.65
YTNGNIASTVLYLRPGYHLA	–	1.06 ± 0.49
SCGWDLVCGMMAVHSSGIVL	–	0.975 ± 0.42
DMIDSGGNALHSSQAHNYRR	–	1.08 ± 0.37
KVRIQGPTNVCVVRTMCGWF	–	5.98 ± 0.056
VFVTGLCSEDVTIYSTM	–	-2.44 ± 2.4
LACTSASSVSRESFMYSQMS	–	2.78 ± 0.16
WYHSYCVVHSFWYATSPLNS	–	-0.259 ± 0.33
KRPSMM	–	-0.18 ± 0.3
RTCAWVGQHATSLWPFNRGQ	–	0.493 ± 0.77
NFFVSRLISQPHLGTYYAS	–	inactive
CWCGVTVCV	–	-0.276 ± 0.59
LRASAWHQFHFAV	–	0.376 ± 0.78
LQTLGNWLHFKYAYWLLSNL	–	-0.55 ± 0.72
VVVFVSE	–	0.997 ± 0.65
IVEDSLRFIANPYTILNR	–	0.723 ± 0.55
LDHTTVWCWCGTGGLYRRCC	–	-0.29 ± 0.31
RNFLIVLPSVYRGPFI	–	5.36 ± 0.064
RGSYHRLWCI	–	0.114 ± 0.72
WFWLIRMYMSFYVVAFVGSG	–	1.31 ± 0.74

Substance	amyloid nucleation score [1]	amyloid nucleation score [2]
TGIYYWNRKLGRYRLHVHVV	–	-0.15 ± 0.97
LNLLYASWYYSFGVR	–	-0.194 ± 0.24
SLIMIGIFFYFSLSKQPRSV	–	0.027 ± 1.7
FTLLAFGCNSENGG	–	-0.462 ± 0.6
SGTRELALGRFHTCCNQRGK	–	0.442 ± 0.27
ALAVVVLFLCVSTPAYVAFE	–	0.923 ± 0.53
ADNFLFWHVIEYKENLDHAR	–	-1.32 ± 1.1
PMNYGSSNA	–	-0.224 ± 1.7
VARYSDRSNTEAYRVRFLGI	–	1.28 ± 0.23
ANDKHLVLGWAQVVTQMDGR	–	0.731 ± 0.86
PCLSDMRLTSAEKGFV	–	0.455 ± 0.69
SSKYTCFSDYKKCVYTLWRL	–	0.292 ± 0.6
SHLMPGCEKFLHCVSFPDA	–	-0.45 ± 0.56
DRPTFKLVFTMKLVSLVTSL	–	inactive
ISKISPFECGPVVAQ	–	1.12 ± 0.73
LNVGV	–	-0.215 ± 1.7
VCNIS	–	0.985 ± 0.42
YTWGRLGSEIKPARASMHLA	–	1.08 ± 0.75
YTSGLFGF	–	-0.531 ± 0.37
LCNIITGVSSIGAYWSTKIL	–	1.22 ± 0.57
FTARTGALGEVVWSFSLGLG	–	0.316 ± 0.45
MYFSIRDCCSYAFNSFDIYG	–	5.508 ± 0.047
RCKLLIIVIRKDTCLKYCGH	–	0.308 ± 0.32

Substance	amyloid nucleation score [1]	amyloid nucleation score [2]
NRCVAGRWPNSFVVLGHTFN	–	-0.211 ± 0.71
YHIGTVVIPWLKVNRIYRGI	–	4.96 ± 0.081
RQDGYPRCIVRVILLECSLI	–	-0.321 ± 0.66
RPFRLYECCCDGELFLN	–	-0.997 ± 0.51
HNSHRWYMGGTNVGVSCI	–	0.456 ± 0.93
KNVMVFVQDWIVVSCMRVEK	–	2.39 ± 0.14
MYYDMLSCFGEVKRS	–	-0.183 ± 0.79
YTRMLLRGAIETGFYPNMLE	–	-1.2 ± 2.1
LVGFSVSYKVSENFCSTL	–	inactive
TTLIILDTYLNMIVVGTLYW	–	0.11 ± 0.22
VANTCWQMMFLRMLSYFLRV	–	0.687 ± 0.44
TVMVGLKVCAHQLDSM	–	1.28 ± 0.4
SKNAWRVKNKSEFAV	–	0.488 ± 0.69
WLKVGGEFSWSVQSVY	–	0.071 ± 0.55
ILRNDMSATVNM	–	0.97 ± 0.17
PTVYSDYTCSTFMWISD	–	0.299 ± 0.6
CEGCDMGWLRSTNRQLMAYL	–	inactive
RSRPVPIVKDRSISNSRESR	–	-0.999 ± 2.4
EWVALRCLDMEGAVAPLALV	–	1.02 ± 0.28
RVETYRSYGAIIEVNRPVYM	–	0.625 ± 0.6
VMRPFWMMMFYFYVEPEALS	–	-0.584 ± 0.95
FKAHRMVLHGYIGSMERG	–	-0.186 ± 1.1
RSVSLKWQSRKHWLLTLTLA	–	0.931 ± 0.32

Substance	amyloid nucleation score [1]	amyloid nucleation score [2]
YEKMTRFNVGKCHMVHFSLP	–	-0.376 ± 1.4
NQIFVQCSVGKAWDRSKSVD	–	4.12 ± 0.081
CDSYELSQTAQRNNSTLRQS	–	-0.359 ± 1.9
CLTGGYPNRKLNLTMMWCHW	–	inactive
SCYTVYQLGLDVGRGVDLEF	–	-0.013 ± 0.58
LVRWSLLRFFL	–	1.89 ± 0.59
NHFVALLSGIGVCSFWKKFG	–	-0.257 ± 1.5
CRSGYRFLRRRAGLTVMR	–	-0.413 ± 1.5
MTAGLHQ	–	3.47 ± 0.082
DRCVQCTALTASTGR	–	-0.113 ± 0.94
RKYKRTVMDMKCYWQGVWSV	–	0.136 ± 0.5
CDSFVSFMPNFNFFR	–	5.03 ± 0.056
LFLFTGLSSRSLHMCIYEIL	–	-0.046 ± 0.34
TNSFSSSLRMV	–	0.076 ± 0.88
GGGQAELEGR	–	0.365 ± 0.45
VEGALGYGCASC	–	0.768 ± 0.65
PKARYRFSWLTRYNLNNRRE	–	-0.608 ± 0.52
VCINFHYLVGINVIRRNDWV	–	4.48 ± 0.1
AALVCPRFLTSKANFVPSKG	–	inactive
FSKCSFT	–	-0.169 ± 0.69
ASSVHPRYFLNMTSSGVRKS	–	inactive
NDTSNPVTLCHFV	–	0.408 ± 0.48
CHWLNVYSCFSYVVTYDWSN	–	6.044 ± 0.056
